The data set relates to MS2 coat protein. The experiment in a line: apparent KD of MS2 coat protein; designed switch direction (-1 OFF switch, 1 ON switch): 1; higher = weaker reporter binding. In outline:
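Stalled E. coli RNA polymerase transcribed designed RNA switches on Illumina chips, which were then titrated with SNAP-549-labelled MS2 coat protein, doubling from 0.7 or 1.5 nM to 3 µM. Steps lasted from 0.8–1.5 h at the lowest concentration to 10–20 min at the highest. The apparent KD is each design's median over clusters of curve-fitted normalised fluorescence.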

[1] abbreviates: Eterna round: R95, input ligand: FMN 200 uM.
Setting [2] is: Eterna round: R95, input ligand: microRNA oligo, concentration not stated.
[3] abbreviates: Eterna round: R95, input ligand: none.
The mark [4] stands for this setting: input ligand: microRNA oligo, concentration not stated.

Turning to “UCUUGGUUUUUGCUCGUUUUUUGUGUUGAACAUGAGGAUCACCCAUGUAUUGUACGGUCCGGUUUAGUAAUGGUCCG [JMF 11] (puzzle: Sensor for hsa-mir-208a)”, the “apparent KD of MS2 coat protein” value by setting is: under setting [1], 24.8 nM; under setting [2], 15.1 nM; under setting [3], 25 nM.

Take “UCUUGGUUUUUGCUCGUUUUUUGUGUUGAACAUGAGGAUCACCCAUGUAUUGUACGGUCCGGUUUAGUGAUGAUCCG [JMF 73] (puzzle: Sensor for hsa-mir-208a)”: the “apparent KD of MS2 coat protein” value by setting is: under setting [1], 39.1 nM; under setting [2], 31.3 nM; under setting [3], 45.6 nM.

For “UCUUGGUUUUUGCUCGUUUUUUGUGUUGAACAUGAGGAUCACCCAUGUAUUGUACGGUCCGGUUUGGUAAUGGUCCA [JMF 9] (puzzle: Sensor for hsa-mir-208a)”, the “apparent KD of MS2 coat protein” value under setting [1] was found to be 55.7 nM, the “apparent KD of MS2 coat protein” value under setting [2] is 41.8 nM and the “apparent KD of MS2 coat protein” value under setting [3] was found to be 63.6 nM.

For “UGAAGAUCCAUAGGAUAUCCGACACAUGAGGAUCACCCAUGUCAACCAAACGCAGCUUCGGCCGUGGAGAAGGAUGGAGCUGUG [Eternabot solution 3] (Eterna round: R96, puzzle: Same State NG 2)”, the “apparent KD of MS2 coat protein” value stood at 72.4 nM (input ligand: FMN 200 uM), 41.5 nM under setting [4] and 76.4 nM (input ligand: none).

As for “UGAAUAGUGAUAGGAUAUACAUGAGGAAUCCUCGUAGAAGGAUCAUAACAUGAGGAUCACCCAUGUAGCGCUCAGAAGAGCGCA [Mat - Same State NG 1 - JL mod - D54] (Eterna round: R96, puzzle: Same State NG 1)”, the “apparent KD of MS2 coat protein” value is, setting by setting: (input ligand: FMN 200 uM) 31.5 nM; under setting [4], 37.1 nM; (input ligand: none) 81.3 nM.

Turning to “UGAAUGAUGUUAGGAUAUACAUGAGGAAUCCUCGUAGAAGGAACAUGACAUGAGGAUCACCCAUGUAGCGCUCCGUAGAGCGCA [JL SSNG1 1.19] (Eterna round: R96, puzzle: Same State NG 1)”, the “apparent KD of MS2 coat protein” value (input ligand: FMN 200 uM) was 210 nM, the “apparent KD of MS2 coat protein” value under setting [4] amounted to 30.4 nM and the “apparent KD of MS2 coat protein” value (input ligand: none) turned out to be 146 nM.

For “UGAGCCGGCACUGAGGAUAUUCAUAAUAAAACAUGAGGAUCACCCAUGUAGGCCAGAAGGCCUUGGGAGAAGGCAGGUCGGCUCA [Mat - Same State 2 - Mod of UCT - D71] (Eterna round: R96, puzzle: Same State 2)”, the “apparent KD of MS2 coat protein” value (input ligand: FMN 200 uM) is 15.7 nM, the “apparent KD of MS2 coat protein” value under setting [4] was found to be 147 nM and the “apparent KD of MS2 coat protein” value (input ligand: none) is 191 nM.

For “UGAGCCGGCACUGAGGAUAUUCAUAAUAAAACAUGAGGAUCACCCAUGUAGGCCAGAAGGCCUUGGGAGAAGGCAGGUCGGCUCA [Mat - Same State 2 - Mod of UCT - D71] (puzzle: Same State 2)”, the “apparent KD of MS2 coat protein” value by setting is: under setting [1], 16.7 nM; under setting [2], 134 nM; under setting [3], 247 nM.

With “UGAGCCGGCACUGAGGAUAUUCAUAAUAAAACAUGAGGAUCACCCAUGUAGGCCAGAAGGCCUUGGGAGAAGGCAGGUCGGCUCU [Mat - Same State 2 - Mod of UCT - D70] (puzzle: Same State 2)”, the “apparent KD of MS2 coat protein” value is, setting by setting: under setting [1], 13.8 nM; under setting [2], 142 nM; under setting [3], 292 nM.

Turning to “UGGAUCUAGGCUUGCCUGGGUCCAUGUUGACAUGAGGAUCACCCAUGUGUAUUUUUUUUGCUUUUUGUUUGUCAACA [JL A Humble Attempt mod 4] (puzzle: Sensor for hsa-mir-208a)”, the “apparent KD of MS2 coat protein” value came to 31.5 nM under setting [1], 16.7 nM under setting [2] and 34 nM under setting [3].

Take “UGGCUCAGACGAGGAUAUAUGCGAUCACAUGAGGAUCACCCAUGUCUCGAGCUUCGGCUCGAGGCAUAGAAGGUGUCUGAGCCA [SSNG2/4-C2] (Eterna round: R96, puzzle: Same State NG 2)”: the “apparent KD of MS2 coat protein” value by setting is: (input ligand: FMN 200 uM) 40.9 nM; under setting [4], 83.1 nM; (input ligand: none) 145 nM.

In the case of “UGGCUCAGACGAGGAUAUAUGUGAUCACAUGAGGAUCACCCAUGUCUCGAGCUUCGGCUCGAGACAUAGAAGGUGUCUGAGCCU [SSNG2/3-C3] (Eterna round: R96, puzzle: Same State NG 2)”, the “apparent KD of MS2 coat protein” value was 53.9 nM (input ligand: FMN 200 uM), 12.2 nM under setting [4] and 6.64 nM (input ligand: none).

As to “UGGCUCAGACGAGGAUAUAUGUGGUCACAUGAGGAUCACCCAUGUCUCGAGCUUCGGCUCGAGGCAUAGAAGGUGUCUGAGCCU [SSNG2/5-C3] (Eterna round: R96, puzzle: Same State NG 2)”, the “apparent KD of MS2 coat protein” value runs as follows: (input ligand: FMN 200 uM) 132 nM; under setting [4], 33.5 nM; (input ligand: none) 23.1 nM.

On to “UGGCUCAGAGCAGGAUAUAUGCGAUCACAUGAGGAUCACCCAUGUCUCGAGCUUCGGCUCGAGGCAUAGAAGGGCUCUGAGCCU [SSNG2/4-B3] (Eterna round: R96, puzzle: Same State NG 2)”, for which the “apparent KD of MS2 coat protein” value (input ligand: FMN 200 uM) stood at 14.9 nM, the “apparent KD of MS2 coat protein” value under setting [4] came to 32.6 nM and the “apparent KD of MS2 coat protein” value (input ligand: none) was 45.5 nM.

Consider “UGGUACAUGGGAGGAUAUCAUGUAGAAACAUGAGGAUCACCCAUGUGGAUGGAGACAUCGGAGAUUGAGAAGGCCCAUGUACCU [JL SSNG1 3.56] (Eterna round: R96, puzzle: Same State NG 2)”, for which the “apparent KD of MS2 coat protein” value is, setting by setting: (input ligand: FMN 200 uM) 15.6 nM; under setting [4], 20.9 nM; (input ligand: none) 25.2 nM.

Consider “UGGUACAUGGGAGGAUAUGGGCAUGAGACAUGAGGAUCACCCAUGUAUUAAAAGCCGAGAGGCAUCUAGAAGGCCCAUGUACCU [JL SSNG1 3.89] (Eterna round: R96, puzzle: Same State NG 2)”, for which the “apparent KD of MS2 coat protein” value is 15.8 nM (input ligand: FMN 200 uM), 80.2 nM under setting [4] and 158 nM (input ligand: none).

For the sequence “UGUACCUUCACAGGAUAUCAUGCGAAAAUUGCGUGAGAAGGGUGAAUACUGUCUUUCUAAGAGUACAUGAGGAUCACCCAUGUA [SameState NG1 #60] (Eterna round: R96, puzzle: Same State NG 1)”, the “apparent KD of MS2 coat protein” value runs as follows: (input ligand: FMN 200 uM) 50 nM; under setting [4], 56.1 nM; (input ligand: none) 73.8 nM.

Turning to “UGUCCAGCCUGAGCUGGACAAAAGCAUGUACAUGAGGAUCACCCAUGUUCAUGUACAAGCUUUUUGCUCGUCUUAGC [salish99_208a_r3_067] (puzzle: Sensor for hsa-mir-208a)”, the “apparent KD of MS2 coat protein” value is, setting by setting: under setting [1], 624 nM; under setting [2], 13.6 nM; under setting [3], 547 nM.

Turning to “UGUCCAGCCUGAGCUGGACAAAAGCAUGUACAUGAGGAUCACCCAUGUUCAUGUACAAGCUUUUUGCUCGUCUUGCA [salish99_208a_r3_109x] (puzzle: Sensor for hsa-mir-208a)”, the “apparent KD of MS2 coat protein” value reads like this: under setting [1], 637 nM; under setting [2], 14.5 nM; under setting [3], 492 nM.

In the case of “UGUUAACAUGAGGAUCACCCAUGUCAAAUGAAUCGAGGAUAUGGUAAGUAAUAAGAUAAUCUAGAAGGCGAAGUUG [Altered State 1-23 - Jieux - Same State 1] (puzzle: Same State 1)”, the “apparent KD of MS2 coat protein” value is 42.6 nM under setting [1], 55.8 nM under setting [2] and 58 nM under setting [3].

Consider “UGUUAGUAGACAGGAUAUUGAAUGUUAAGUAUUAACAUGAGGAUCACCCAUGUAUUAGAUUGGUACAAGAAGGGUCAAGUAAGU [JR_SSNG2_Sub011] (Eterna round: R96, puzzle: Same State NG 2)”, for which the “apparent KD of MS2 coat protein” value runs as follows: (input ligand: FMN 200 uM) 380 nM; under setting [4], 540 nM; (input ligand: none) 247 nM.

Take “UGUUAUUAGACAGGAUAUUGAAUGUUAAGUAUUAACAUGAGGAUCACCCAUGUAUUUCAUUCGUACAAGAAGGGUCAUGUUCCU [JR_SSNG2_Sub017] (Eterna round: R96, puzzle: Same State NG 2)”: the “apparent KD of MS2 coat protein” value under setting [4] stood at 162 nM.

With “UGUUGUAUUACAGGAUAUCUAGUAUUUUUAUAUAGAGAAGGGUAUUCACAUGAGGAUCACCCAUGUAUAUACGAGGAAGUUGUG [JMF's solution 51] (Eterna round: R96, puzzle: Same State NG 1)”, the “apparent KD of MS2 coat protein” value under setting [4] is 23 nM.

For “UGUUGUAUUACAGGAUAUCUAGUAUUUUUAUCUAGAGAAGGGUAUUCACAUGAGGAUCACCCAUGUAUAUACGAGGAAGUUGUG [JMF's solution 53] (Eterna round: R96, puzzle: Same State NG 1)”, under setting [4], the “apparent KD of MS2 coat protein” value was determined as 25.9 nM.

On to “UGUUGUAUUACAGGAUAUCUAUUAGAUUUAUUUAGAGAAGGGUAUUCACAUGAGGAUCACCCAUGUAUAUACGAGGAAGUUGUG [JMF's solution 86] (Eterna round: R96, puzzle: Same State NG 1)”, for which the “apparent KD of MS2 coat protein” value under setting [4] turned out to be 40.2 nM.

For “UGUUGUAUUACAGGAUAUCUAUUAUAUUUAUUUAGAGAAGGGUAUUCACAUGAGGAUCACCCAUGUAUAUACGAGGAAGUUGUG [JMF's solution 15] (Eterna round: R96, puzzle: Same State NG 1)”, under setting [4], the “apparent KD of MS2 coat protein” value is 36.4 nM.

For “UGUUGUAUUACAGGAUAUCUAUUAUUUUGAUUUAGAGAAGGGUAUUCACAUGAGGAUCACCCAUGUAUAUACGAGGAAGUUGUG [JMF's solution 22] (Eterna round: R96, puzzle: Same State NG 1)”, under setting [4], the “apparent KD of MS2 coat protein” value was 34.4 nM.

Turning to “UGUUGUAUUACAGGAUAUCUAUUGUUUUUAGUUAGAGAAGGGUAUUCACAUGAGGAUCACCCAUGUAUAUACGAGGAAGUUGUG [JMF's solution 82] (Eterna round: R96, puzzle: Same State NG 1)”, the “apparent KD of MS2 coat protein” value is 59.9 nM (input ligand: FMN 200 uM), 34.6 nM under setting [4] and 49.9 nM (input ligand: none).
